Measured values as given in the supplement of paper PMC9170038.

How the values were obtained:
[1] = tested on: MS2 coat protein; experiment: apparent KD of MS2 coat protein; higher = weaker reporter binding; settings: Eterna round: R101
Protocol: (§1)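 RNA-MaP: designed FMN/MS2 RNA switches (84 nt design region) are transcribed on-chip within common flanks and titrated with SNAP-549-labelled MS2 coat protein (about 1-3000 nM) in 100 mM Tris pH 7.5, 80 mM KCl, 4 mM MgCl2, without or with 200 uM FMN. Median apparent KD per design; activation ratio = KD,OFF / KD,ON.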

[2] = tested on: MS2 coat protein; experiment: apparent KD of MS2 coat protein; designed switch direction (-1 OFF switch, 1 ON switch): 1; higher = weaker reporter binding; settings: Eterna round: R98
Protocol: as §1

## AAAUGCCUGUCGAUGCUCGACAUGAGGAUCACCCAUGUAUAGCAGGAUAUGCAGAACUGACUCGUGCAGAAGGGCUAUACCUAA (puzzle (switch architecture): Exclusion NG 3)
[1]; input ligand: FMN 200 uM
  apparent KD of MS2 coat protein: 52.8 nM
[1]; input ligand: none
  apparent KD of MS2 coat protein: 18.7 nM

## UAAAUAAAUCCUAGAGGAUCACCCUAGGAUAUCACCGUCGAGGUGCCAUAAUGGCACCUCGACGGUGAGAAGGAGGUUGAUAAA [#SharedSequence - SLExNG3: 6] (puzzle (switch architecture): Small Loop Exclusion NG 3)
[1]; input ligand: FMN 200 uM
  apparent KD of MS2 coat protein: 13 nM
[1]; input ligand: none
  apparent KD of MS2 coat protein: 8.33 nM

## GCAGCUAAUGCAGGAUAUCAGCACGUGUAGUGCUGAGAAGGGCACAUGAGGAUCAAAACUGUGAUCAAUUAAUAUUAAUGCUGC [salish99#hingeEx3_55-58_001] (puzzle (switch architecture): Exclusion NG 1)
[1]; input ligand: FMN 200 uM
  apparent KD of MS2 coat protein: 8.28 nM
[1]; input ligand: none
  apparent KD of MS2 coat protein: 9.12 nM

## GCCAUCGCAUGAGGAUAUGCUCCGGUUUCCGGAGCAGAAGGCAUGUCAUAAGACAUGAGGAUCACCCAUGUAGUUAAGAUGGCA [#HiddenHairpinInALoop - jl-sng1-2.00 jl mod - Original] (puzzle (switch architecture): Same State NG 1)
[1]; input ligand: FMN 200 uM
  apparent KD of MS2 coat protein: 10.6 nM
[1]; input ligand: none
  apparent KD of MS2 coat protein: 283 nM

## AAUAAUCUUUAAGGAUAUCAGUGGCAAAGCCACUGAGAAGGUGAGGAUCACCCACCUACGUGACCCUGGAAACAGGGUCACGAA [#SharedSequence - ExNG1-10] (puzzle (switch architecture): Exclusion NG 1)
[1]; input ligand: FMN 200 uM
  apparent KD of MS2 coat protein: 15.4 nM
[1]; input ligand: none
  apparent KD of MS2 coat protein: 14.3 nM

## CAGUCGACCAUAACAAGGUCGACUGACUUCUGAGGAUCACCCAGAAGGCGUCACCUAAUAGGUGACGAGGAUAUGGAGUGAAAA [#SharedSequence IExNG# - 6] (puzzle (switch architecture): Inverted Exclusion NG 3)
[1]; input ligand: FMN 200 uM
  apparent KD of MS2 coat protein: 75 nM
[1]; input ligand: none
  apparent KD of MS2 coat protein: 95 nM

## AAAUAAACUCAAGGAUAUGACUCCGAAACGGAGUCAGAAGGUGAGGAUCACCCACCUAAGAUCAGACCUCAGGAAACUGAGGUC [#SharedSequence ExNG1 - 36] (puzzle (switch architecture): Exclusion NG 1)
[1]; input ligand: FMN 200 uM
  apparent KD of MS2 coat protein: 13.2 nM
[1]; input ligand: none
  apparent KD of MS2 coat protein: 6.46 nM

## AAAUAAAUUCAAGGAUAUCAGUGGCAAAGCCACUGAGAAGGUGAGGAUCACCCACCUAUGAUCACAGGUGACGAAAGUCACCUG [#SharedSequence ExNG1 - 38] (puzzle (switch architecture): Exclusion NG 1)
[1]; input ligand: FMN 200 uM
  apparent KD of MS2 coat protein: 11.4 nM
[1]; input ligand: none
  apparent KD of MS2 coat protein: 11.3 nM

## AAAUGAUAUCAGAAGGGCUCCAGCAAAGCUGGAGCAGGAUAUGAGGAUCACCCAUGUCACCUGACGGUCGAAACGACCGUCAGG [#SharedSequence - IExNG1: 7-3] (puzzle (switch architecture): Inverted Exclusion NG 1)
[1]; input ligand: FMN 200 uM
  apparent KD of MS2 coat protein: 205 nM
[1]; input ligand: none
  apparent KD of MS2 coat protein: 26.6 nM

## UAAAUAAAUCCUAGAGGAUCACCCUAGGAUAUCACCGUCGAGGUGCCAUAAUGGCACCUCGACGGUGAGAAGGAGGGAAAUAAA [#SharedSequence - SLExNG3: 3] (puzzle (switch architecture): Small Loop Exclusion NG 3)
[1]; input ligand: FMN 200 uM
  apparent KD of MS2 coat protein: 11.6 nM
[1]; input ligand: none
  apparent KD of MS2 coat protein: 9.97 nM

## AUAUAUAUAUAGAAGGACAUGAGGAUCACCCAUGUCGCCGGGCCCGGGAAACCGGGCCCGGCCAUGUAGGAUAUAUAUAUAUAU [#This is a good prank 12] (puzzle (switch architecture): Inverted Exclusion NG 2)
[1]; input ligand: FMN 200 uM
  apparent KD of MS2 coat protein: 5.57 nM
[1]; input ligand: none
  apparent KD of MS2 coat protein: 3.55 nM

## UAUAUAUAUUGAGGAUAUGCACAGGAUCACCGUGUAGAAGGCAUCAGGGAGAAGGUGCAGAGGAUCACCCUGUAAGGAUAUCAU [pwkr2 ssNG1 DX.1]
[2]; input ligand: FMN 200 uM
  apparent KD of MS2 coat protein: 146 nM
[2]; input ligand: none
  apparent KD of MS2 coat protein: 205 nM

## UAUUUAUGGUGAGGAUAUGCAAAGGAUCACCUUGUAGAAGGCAUCAGGUAGAAGGUGCAGAGGAUCACCCUGUAAGGAUAUAUC [pwkr2 ssNG1 DX.22]
[2]; input ligand: FMN 200 uM
  apparent KD of MS2 coat protein: 66.1 nM
[2]; input ligand: none
  apparent KD of MS2 coat protein: 232 nM
